Source: patent publication US20090028881A1 (ROCHE PALO ALTO, published 2009)

Molecular target: T1, human CCR5 (wild-type) (human, UniProt P51681 1-352)
T1 construct: also called wild-type CCR5
Experiment: alanine scanning epitope mapping
Excerpt: Epitope binding is investigated by using alanine scanning according to the method described by W. C. Olson et al. (J. Virol. (1999) 73:4145-55) for epitope mapping. […] 100% epitope binding is defined for wild-type CCR5. A further preferred anti-CCR5 antibody binds to the same epitope as antibody C binds.

T1 sequence (P51681 whole entry): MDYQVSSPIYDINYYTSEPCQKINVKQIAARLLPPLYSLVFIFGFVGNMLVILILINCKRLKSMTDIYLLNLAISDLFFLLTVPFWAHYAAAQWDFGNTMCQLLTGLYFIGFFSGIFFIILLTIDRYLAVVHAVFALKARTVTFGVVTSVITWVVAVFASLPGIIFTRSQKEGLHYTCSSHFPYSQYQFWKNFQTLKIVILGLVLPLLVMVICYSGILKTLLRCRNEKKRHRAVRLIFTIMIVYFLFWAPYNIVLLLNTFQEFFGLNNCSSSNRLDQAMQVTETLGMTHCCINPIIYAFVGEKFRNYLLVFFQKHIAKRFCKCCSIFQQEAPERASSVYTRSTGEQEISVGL

B1: <CCR5>Pz03.1C5 (antibody, V domains shown)
VH: QVQLKQSGPGLVRPSQSLSITCTVSGFPLGIFGVHWVRQSPGKGLEWLGVIWKGGNTDYNAAFMSRLRITKDNSKSQVFFRMNSLQTDDTAIYYCAKVNLADAMDYWGQGTSVIVSS
VL: DIQMTQSPASLSASVGETVTITCRASGNIHGYLAWFQQKQGKSPQLLVYNTKTLAEGVPSRFSGSGSGTQFSLKINSLQPEDFGNYYCQHHYDLPRTFGGGTKLEIKR
notes: also called Antibody C; m<CCR5>Pz03.1C5
B1: binds.
